According to the NTF2 design screens of Basanta et al. (2020):

Assay: protease stability score; higher = more stable; yeast display proteolysis, trypsin and chymotrypsin;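 also: relative to predicted unfolded state with 0 unfolded-like and 1 meaning tenfold more protease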

| Sequence | protease stability score |
| --- | --- |
| DELTEILKHAVERLLRHIVTGDEDSVSELADPNVKVDFNGQEYHGMHFFSHLASRFKGLRLELTELHSVGNYMDTRMHVEVNGKNIELILHSKKVNGKWSLERSEFH | 1.26 |
| DELTEIMLRIAQLILTILLTGNEDHFKRLFDPNVRLTINGVDFVGREWIVHFMRNLTDELRIKDNKIEDIRVQGDKAKVDSRLDGEVDGQHMELRTSYVLIKIDGRWSVHSVEFR | 1.26 |
| DELTELAEKAKELFVRIEKTGDEKTWSEYADPDVRIHVNGVDLHGREESLKWMHDLRERIKNMRVEFKDFKIEIIGNKVIIFIDGRLRYDGRELELESVYYVSKFNGRWRVESEELRIR | 1.37 |
| DELTESVREFIEHFIRALETGDWHILHRLLDPHVKLNVNGVEFHGREIIVEFLREIRIHSFIVHHVRIQGDWIDIDGETDGVINGRRIRTRTRIHLHKIDGRWQIKSESVI | 2.09 |
| DELTEVADYLLEHFIRNLITGNEERVRHLADPHVRVIEVYGDKVEMRHGRDSMLKWMHDWRHHIRLKHYQIEHIEVQGEKSVVHGRLRGNIDGRDIDTRTHIEVVHIDGRFTSMRYEVR | 0.555 |
| DELTHAVTRFHKETMDAVRTGNEEWHSRLLDPNTRIHIGEFNNVGMEQVIEILRRVKNLRIHHVHLDHIDFYDGRADIHGTVHGIWNGRHRKVKHEHFLLKIDGVWYLEEIRVE | 0.371 |
| DELTKEFEHFLEMLRRAQETGDEETVAKLMDPDVRIIIDGRNIIGREELTRFVSEWREEITVNEKHLKVINGRIHVDGEYHSRIRFDGREQRYSTRVHIVTIKVDGQWLLRTVHIG | 1.05 |
| DELTNEHERYLHFLWEMIKTGDEENLENLVDPHARLEFENREFHGREDVRKWLVEIRFHRVHLRRMEVQGNKVILDTELDGEFNGQRVRHTTKTHALKVNGQWLLHELIIK | 1.25 |
| DELTRDFEEATELLIRILLTGDEDIFREMADPNVRLHYGDKTFIGREEFVKWLHQWRIEDIKIDHVDLQGDYAIVHGRIRTVIGDKEHKVDTKWIIRKYNGKWDIREVHIR | 2.07 |
| DELTREMDRVHEELVRSLTTGDEDRLASMMDPNARLRIDGVNFIGRDKIREFWHQIDHSSMHLHHIHVYGDKIRLEGELILNFNGVEHNHETLMIIKKVDGKWVIESIHLK | 1.79 |
| DELTRQMRTFAERWIHAERTGDEEILRELMDPHAKLDVKQGDKRHDWHGRERITEFIRRMGIKHIQVDHVELQGEKIHMHVTMYVDGQVLDSTLKLWVVDGVTKSVEIEFK | 1.2 |
| DELTTLAREFLRLIKEVLETGDERTMHELADPNYRIRIGDKLVHGWEQQSELIIRIRTELGMTVKDSRIEDSHVQGDKLVVRVRLDMIQGDKKDSVDRIVRVDKINGKWIMSEIELI | 1.49 |
| DELWELAFFIMKILLHLHLTGDEEMWSSYADPNVRFTLRVGDKEVKRHGMEDVEKFQTELEREIRVDHFDERRTHYYNGRARVDGHIDGLVNGRPVHFRTELHVHTIDGVVREVEIIIE | -0.045 |
| DEMDEHARDLFELLLRIWLTGDEHELRELADPHVRIHVGDKNHVGMDKFAHEFIRHVQERGVRIEIRIRDHHAINGVSHSDGEIVLNYDGREYRMDTKIIMVIYNGKVKELRFHIR | 1.39 |
| DEMDEISKEAWRMLKEITRTGDEDLMHKNVDPNARVIYGDKVVHGRERVTKILVEMRIDHEEHRDSRVVGNKVELDVHFDGEFDGRRFRTDVHWVIVKINGQWRIKEHVIL | 1.22 |
| DEMDELAERIYETWVKRHLTGDEKVIEELMDPNVRIDIVVGDKKIHLIGRETASSFARRWFDHLRIDDMRMHSVETINGQIHSEVEVHRRIGDKERFILTRIEMHVINGKIHSIRLEIE | 1.1 |
| DEMDEVMERWAREYISWEKTGDEEKAKKYVDPNVKTHIDFNGRHVENIGMESEFNFFRELGITIHDIKIREIELQGDKVRIKGRIVFQIGDFEIIIERTVHIVVINGQDRHSEFRFE | 0.194 |
| DEMDHWVMEMFEHLLKLFLTGDEEKWERLADPNVKTRFIINGKDVRLHGREHFKKLVDELRITSVDLRDIRAVGNKAEVEGRVEGEFDGQTHILDMRVRFEIINGKLKKEEYVIR | 1.27 |
| DEMEDSSRWALEVEMKSFKTGDERSLYEMVDPHAKFEFENHHDHGRSAVELWREQADHMHIDFRLKDMRLVGDFIIIHGVELVHNHVNGRDIDLNLDVRIISRKINGRWILHHVLFR | 1.38 |
| DEMEEESHTVLKLIVESFRTGDEEEVRHLADPNVRLDVDGQRNHGWKMLLKFFRQIRWHDVELHDIELQGDKMHIIGHVDGNVNGRRRRLDTHILLVKIDGKWRLELVHIH | 1.55 |
| DEMEEHSRHLVELFWHWTDTGNEDLIRKNADPNVRLEVNGVHAHGWELYIRMMNQIRIEDRKINDVEVQGDKMRVDGEVQIYYNGKRVDDHLKLHLVVVDGKLKSVHRELE | 1.31 |
| DEMEEKIRTHMSLLVEYLDTGDEEITKSMLDPNTMAFYGDKLHIGREEAEEILREIRVHHLDIKRIDHQGDKIRVDGEMDGIVNGKRYRTRVEIFSTKINGRWIIEQRVIR | 1.04 |
| DEMEEQIKRLIHLLAHYLRTGDEHSTEELADPNVRIHIDGKEYHGRELFIKFLHERLRHLGIKHIHIHIKDIREIDGRIHIDGELEQHIDGKERRMKQEMLVEKIDGQWHIKELEIE | 2.59 |
| DEMEESAERMIEIYLRWLETGDEDSLVENIDPNVRVEIGDKRYHGREEVMHFLSSIQQRIKGARFHLKHFEIQGEYVDIHMEQRVGDKTMDRRVIFQKIDGRWLLKRSQVR | 1.5 |
| DEMEETTERITRLIHHYHRTGDWRLLSDLFDPHAKSEVNGVRLHGWHEMREFFENEMRELGIENVRFRYHLHDYRIFDGRVDLDVRLEIRIGDKEDHMESHIHTEKVNGQWRLRTLSLN | 0.412 |

| Sequence | protease stability score |
| --- | --- |
| DEMEKMSRDVHKQLKNAFETGDESEMERLLDPHAKIDIGDKRLHGMEEYSHLLHEWRIKDLHIKDIQVQGDKAISDTHRYLEIGDKEYEREVIVYVIKVDGRWIIHSLVFR | 0.777 |
| DEMEKWSEMALDLIAETVETGDEHTYRRNFDPHTRVNVNGRHLHGMEVWLKELHELGIDRIEMDMKDIRIQGDKAIIILTLIINGRFHHVSIVSVKIDGRWHLHSVKYD | 0.33 |
| DEMEREVEKWVRIYLHALRTGDERILENMVDPEARTHINGRHDHGRDSLHKILKEMGFDHMHVEIRDVRVVNGQIHLEEIIRVDVDGRRITITVEVVIVKIDGRWIVKSFHIR | 1.17 |
| DEMERIIETALELLIKSERTGDEDLYREFLDPHTIIDINGKIIHGREEFVRWFTEIRVHELKLRDMEIQGEFAIIYGEVDGRIGDKHFHTSVRLIVYKIDGRWIMRWNELN | 1.42 |
| DEMERNEELALKIIEETQRTGDWHMIYEQLDPHVRIIIGDKTLVGREHVEEWLHRIDHLHVDDMKLEHSRPINGRILLDVHMHVHIRYGDKQVKHTTHVHIIMFKFNGRWYLKIVHIH | 2.65 |
| DEMHEYTERLLHLLTFAQITGDERIHERLADPNVKIHINGREFHGREEVWHSLEEIRVRHTELRESDIQGDKINVNGDVDLHFNGVDIVTKVRIVVDKVNGRWRISFLRID | 0.546 |
| DEMKEEQRKFSELAIHNFETGDEDTFHRLADPHTKVEINGVLHIGRETVTTFFSHYWELFGVDHFEEKDRKIEIQGEKVITRIRGIIHFNGRQTDVLIRLEIRKINGRWILHSFTIEHI | 0.579 |
| DEMKEWIRELIERWTHAFLTGDEDELKRLVDPHAKLDINGRDVIGREDFVEHLRRLFEELGVKHVSSRMRDIKIVNGRAHVDSEFRLRVGEKQESHRMHIISDKYNGRWVIQSIHVE | 1.93 |
| DEMQEVLERFAHEWFHNLHTGDEDTLLKLADPNVRVHVGDKDLIGRELWKEELHKMKGLKLELHDYHAINGRIHLDVTQKFNGKEVELEMDIIVVNGRVKEIRHQRR | 1.06 |
| DEMREEVETILKLMEEWEKTGDFETILTYLDPNARLHENINGRELHSHGREFIHWAYEFFKNLRIETVQEDEVHIFENHFQIRVTLKGTINGRHYIFHRIIIINAIDGRIRHEVILYK | 1.53 |
| DEMRKYAHEYFKLLIELLLTGDEDSMLHNIDPNVRFDEHAENHRVHIHGMESLREWLDHFLKHAWITHIHESDSRVFNGRMHLIGHTRIYIDGKLEIKEIRIEFIVINGRITHYRVEVN | 1.52 |
| DEMRRDVDETLKELLEAWETGDEEKVSHLMDPNVRIHIGDKTLVGRELVREEVRHLRYHDYDVHHIRVIGEKADIDGVLDGNVNGRRENRKIHLHLLKVDGRWFFEETRFE | -0.004 |
| DEMTEDSERAMEILVRSILTGDEKDLIELADPNVRLDVNGRDYHGWKNFIKVFKKIMDELRIKDTELKDVRNQGEKAILDTRIHGIINGREIIFESSIDHRKINGVWLIERIIIK | 1.1 |
| DEMTHEIKRFLKEILRSSRTGDEHTDKHLMDPNVKIHYGEFHFHGREQAANFLSELRIHHVHIRDVDVQGDKATIDTEMDVEYNGQRYIFDVTLIMQKIDGRWLIKKVRYE | 1.3 |
| DENDTARKIIKTLLDIMREGDEDKLRDQMDPNVRADVGDKTVHGREHAAKFLAHIVKRADHISITLKSLHNHNGRLRMQAEVRIVHNGRTERVTLEMVFRDHNGKLLIERMKYG | 2.36 |
| DENEDRIRHLLELHFHALETGDEKKTHDLFDPNTRVEVGDKTLHGRELVSKHVAEDLIKIKGLTVRIRDWNIVGDKVVVDSRVEFNGVRVETILVALKVDGRWLVKSIHIH | 0.42 |
| DENEEDSKRAVELIEDSMKTGDEELMTKQMDPNVRVDYNGKEHHGWEHAKRWFHLMGVDHLHLHRVRLINGVVHLDVDSRINGREFKVHITALKVDGQWVLKEISIR | 1.26 |
| DENEELLTDMIRLLKNVLETGDEEHFHRLADPHVRFKIGDKIFHGREEATRIFSEVMERFKNVRLRLEHIEIIGDKITIHTRIDVGDKSYEMHIHARKVNGKWIMETLFIR | 1.17 |
| DENEEQLEDSVRMYIEAVQTGDEDSLRKLMDPHWRLEYGDKELHGRWALEVRHKFFKGMRIHHIEVHSVEIQGDKAKIIIHVLMEFDGRRLHIKTEVTVQKINGRWFNHSEKIN | 1.14 |
| DENEETMRHYFELLVRNLRTGDWHSLTRLMDPHVRLEYNGREFHGMEEVIRFLLHIRLRHLHLERVEIQGDKVRMHVSVDGEVNGRREEWDVELIARKIDGRWIQTSEIYR | 0.212 |
| DENEHIAREFLRQFLRQVETGDEYRLMELMDPNARINFDGKDLHGRDEWIRKIREIRFDQTHIHDVRIQGNKMEVDTRWDGEINGVRTIFDVHMDIRKVDGKWIIKVINIH | 1.66 |
| DENEHQTRIWNEIFIKIFLTGDWKRLSDMADPHVRSIINGQDLHGMENLSKIVEEIREELRVRSVHLHDIKVINGVAKVDTRLDMEYGDKRTDYNIEIHTLKVDGRWHLKEIKLV | 0.292 |
| DENEQEARKAIEELIHNRETGDEQRMSELLDPHTRIDYNGVEVHGRHYLLKLLRRIDHSRFNLRRLDIQGEKIIMEGELELDVNGVKIRIKLTEIILKVNGRWILHSSRIE | 1.95 |
| DENERRYNELSRLLFEWFLTGDEKMLSNFMDPNAKAEVNGKEEHGREELIRIYHDWLRKAGVDHIQPRHLETRHFDGRVHVHINVDVLINGKILHIHIDIDMVKIDGKWIIKHIRIHER | 1.2 |
| DENETALREVIKRYFKAILTGDEHELENLLDPNVRVEINGVKLHGMRDYLEWIREWRIKDMRIRIEHVEVIGNKMIIDSRLRVNETVNGVTRDREKKLHLIVTKINGRWHIEEINEE | 2.16 |
